9 sequences from patent publication US10138493 can be followed below.

Common to all, as to experiment: cell_activity
One data set has as its system synTF ZF 1-3. To be noted: 1x reporter, HEK293FT; KRAB and HP1 fusions also repress (p284, p286).
Another data set relates to synTF ZF 8-1. To be noted: 1x reporter, HEK293FT; KRAB and HP1 fusions also repress.
Another data set has as its system synTF ZF 5-7. To be noted: 1x reporter, HEK293FT; KRAB and HP1 fusions also repress.
The subject of a further data set is synTF ZF 4-8. Conditions: 1x reporter, HEK293FT; KRAB and HP1 fusions also repress.
The test system of the next data set is synTF ZF 3-5. Conditions: 1x reporter, HEK293FT; KRAB and HP1 fusions also repress.
The subject of another data set is synTF ZF 6-4. Conditions: 1x reporter, HEK293FT; KRAB and HP1 fusions also repress.
Another data set relates to synTF ZF 7-3. Conditions: 1x reporter, HEK293FT; KRAB and HP1 fusions also repress.
The test system of a further data set is synTF ZF 9-2. Conditions: 1x reporter, HEK293FT; KRAB and HP1 fusions also repress.
The next data set has as its system synTF ZF 2-6. To be noted: 1x reporter, HEK293FT; KRAB and HP1 fusions also repress.

In the data set on synTF ZF 1-3, “CGTCGAAGTCGAAGTCGACC (double strand) [Target 1]” had an activity (fold GFP activation) greater than 10.
“AGACGCAGTATAGGTCGAAC (double strand) [Target 8]” returned an activity (fold GFP activation) with synTF ZF 8-1 greater than 10.
“TGAAGCAGTCGACGCCGAAG (double strand) [Target 5]”: in the data set on synTF ZF 5-7, the activity (fold GFP activation) is greater than 10.
In the data set with synTF ZF 4-8, “GGACGACGCCGATGTAGAAG (double strand) [Target 4]” registered an activity (fold GFP activation) greater than 10.
“AGACGTCGAAGTAGCCGTAG (double strand) [Target 3]”: the activity (fold GFP activation) with synTF ZF 3-5 is greater than 10.
In the data set on synTF ZF 6-4, “GGACGACGCGGTCTAAGAAG (double strand) [Target 6]” returned an activity (fold GFP activation) greater than 10.
In the data set on synTF ZF 7-3, “CGACGAGGTCGCATAAGTAG (double strand) [Target 7]” showed an activity (fold GFP activation) greater than 10.
Consider “AGACGCAGTATAGGACGACG (double strand) [Target 9]”, for which the activity (fold GFP activation) with synTF ZF 9-2 was greater than 10.
Consider “GGACGACGTTACGGACGTAC (double strand) [Target 2]”, for which the activity (fold GFP activation) in the data set on synTF ZF 2-6 is greater than 10.
